Literature values in paper PMC9442343.

Molecular target: IL-18 (Homo sapiens) (UniProt Q14116)
Sequence (Q14116 37-193): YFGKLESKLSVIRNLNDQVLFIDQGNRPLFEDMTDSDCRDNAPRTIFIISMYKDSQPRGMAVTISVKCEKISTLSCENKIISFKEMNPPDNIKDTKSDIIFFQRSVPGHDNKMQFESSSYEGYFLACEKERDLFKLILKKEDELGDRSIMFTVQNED

Sequence of IL-18BP (O95998 31-194): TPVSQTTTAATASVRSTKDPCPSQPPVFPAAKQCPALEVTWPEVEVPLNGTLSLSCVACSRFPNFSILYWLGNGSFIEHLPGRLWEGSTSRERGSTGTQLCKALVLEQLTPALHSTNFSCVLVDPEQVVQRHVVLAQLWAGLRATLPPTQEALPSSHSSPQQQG

For IL-18BP (from UniProt O95998), which Kd is on record?
Its Kd is 0.4 nM.
